Laboratory results from patent US20180105597A1 (Eli Lilly, published 2018).

Columns and labels:
TGFβ RII AP [1] = molecular target: T1, TGFβ RII AP (UniProt P37173 23-166); test: ligand blocking ELISA, TGFβ RII AP binding to coated TGFβ ligand 2 (competitor)
Description: (§1) A serial dilution of purified antibodies was incubated with TGFβ RII AP for 1 h in TGFβ-coated plates. After wash, p-nitrophenyl phosphate substrate was added to the wells for color development. The values of absorbance at 405 nm were read on a microtiter plate reader (Molecular Devices Corp) for the quantification of TGFβ RII binding to TGFβ. IC50 of the antibodies was analyzed using GraphPad Prism.

TGFβ RII AP [2] = molecular target: T1, TGFβ RII AP; test: ligand blocking ELISA, TGFβ RII AP binding to coated TGFβ ligand 1 (competitor)
Description: as §1

TGFβ RII AP [3] = molecular target: T1, TGFβ RII AP; test: ligand blocking ELISA, TGFβ RII AP binding to coated TGFβ ligand 3 (competitor)
Description: as §1

[4] = molecular target: T2, huTGFβ RIIFc (recombinant extracellular domain of human TGFβ RII fused to Fc) (human, UniProt P37173 23-166); test: ELISA, huTGFβ RIIFc coated, antibody titrated; LY3022859; binding ELISA
T2 construct: The Fc is not described; also called human TGFβ RIIFc; not shown: Fc part
T2 sequence (P37173 23-166): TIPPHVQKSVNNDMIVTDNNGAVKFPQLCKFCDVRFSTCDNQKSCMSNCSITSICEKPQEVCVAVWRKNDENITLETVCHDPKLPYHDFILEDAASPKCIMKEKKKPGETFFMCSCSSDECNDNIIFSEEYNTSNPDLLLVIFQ
Description: (§2) For binding assays, huTGFβ RIIFc was coated on microplates. […] After washing, plates were incubated with HRP-labelled goat anti-rat Fab detection antibody and subsequently TMB peroxidase substrate was added to the wells for color development. The values of absorbance at 405 nm were read on a microtiter plate reader (Molecular Devices Corp). EC₅₀ of the antibodies was analyzed using GraphPad Prism.

[5] = molecular target: T2, huTGFβ RIIFc (recombinant extracellular …); test: SPR (Biacore), TGFβ RII-Fc extracellular domain immobilized at low density; LY3022859; KD
Description: (§3) The association (kon) and dissociation (koff) rates were determined using BIAevaluation 2.1 software.

FcγR3a (V) = molecular target: T3, FcγR3a (V) (human, UniProt P08637 17-208); test: solid phase binding assay (Meso Scale), receptor coated, antibody titrated
T3 construct: V158 allotype as printed
T3 sequence (P08637 17-208 F176V): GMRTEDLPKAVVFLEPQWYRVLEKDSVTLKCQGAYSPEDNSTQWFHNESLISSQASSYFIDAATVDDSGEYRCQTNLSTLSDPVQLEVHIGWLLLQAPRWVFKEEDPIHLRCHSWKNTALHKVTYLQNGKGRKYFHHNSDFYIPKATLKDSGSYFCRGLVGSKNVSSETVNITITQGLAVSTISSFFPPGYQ
Description: (§4) Receptor protein (50 ng/well) was added to the wells of a Meso Scale standard bare plate in PBS. […] The plates were washed three times in PBS/0.05% Tween-20. Stock solutions of all antibodies were prepared at 0.5 mg/mL in 1% MSD blocker A in PBS-Tween and serially diluted 1:3. The indicated antibodies were added to each reaction well. Recombinant protein and antibodies were incubated for 2 hours at room temperature and then the plates were washed 2 times with PBS/0.05% Tween. Secondary antibody was added to each well. After one hour at room temperature with agitation followed by 40 mins at room temperature, the plates were washed 2 times with PBS/0.05% Tween-20. For detection, 150 μL of a 1× Read Buffer (MSD cat # R92TC-1, 4×) were added to each well. The plate was then read using a Sector Imager 2400.

FcγR1 = molecular target: T4, FcγR1 (human, UniProt P12314 16-288); test: as above
T4 construct: also called human Fc-gamma receptor 1
T4 sequence (P12314 16-288): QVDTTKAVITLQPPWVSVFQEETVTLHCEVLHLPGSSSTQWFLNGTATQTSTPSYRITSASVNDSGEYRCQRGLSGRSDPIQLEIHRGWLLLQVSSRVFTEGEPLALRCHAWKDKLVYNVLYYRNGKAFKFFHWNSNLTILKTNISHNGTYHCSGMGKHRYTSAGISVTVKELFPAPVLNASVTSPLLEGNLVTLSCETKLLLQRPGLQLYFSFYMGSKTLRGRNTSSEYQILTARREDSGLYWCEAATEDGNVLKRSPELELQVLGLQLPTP
Description: as §4

FcγR2a(H) = molecular target: T5, FcγR2a(H) (human, UniProt P12318 36-218); test: as above
T5 construct: also called human Fc-gamma receptor 2a, H form
T5 sequence (looked up): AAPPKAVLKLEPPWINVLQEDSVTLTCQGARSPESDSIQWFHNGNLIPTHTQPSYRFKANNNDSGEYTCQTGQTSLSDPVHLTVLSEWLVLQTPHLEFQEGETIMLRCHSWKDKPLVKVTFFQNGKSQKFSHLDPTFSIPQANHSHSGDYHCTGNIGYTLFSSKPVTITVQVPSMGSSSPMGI
Description: as §4

[6] = molecular target: T2, huTGFβ RIIFc (recombinant extracellular …); test: ELISA, huTGFβ RIIFc coated, antibody titrated; Antibody A; binding ELISA
Description: as §2

human C1q = human C1q (human, UniProt P02745 23-245; P02746 28-253; P02747 29-245); test: cell-based or functional assay
Chain of human C1q (P02745 23-245 limits assumed, chain 1 of 3): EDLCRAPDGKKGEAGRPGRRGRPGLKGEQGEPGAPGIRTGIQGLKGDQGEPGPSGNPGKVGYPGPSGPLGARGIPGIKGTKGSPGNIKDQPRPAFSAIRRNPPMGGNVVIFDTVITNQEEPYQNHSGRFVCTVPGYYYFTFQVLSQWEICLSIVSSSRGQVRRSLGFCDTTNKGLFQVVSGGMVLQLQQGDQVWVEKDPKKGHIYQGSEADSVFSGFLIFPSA
Chain of human C1q (P02746 28-253 limits assumed, chain 2 of 3): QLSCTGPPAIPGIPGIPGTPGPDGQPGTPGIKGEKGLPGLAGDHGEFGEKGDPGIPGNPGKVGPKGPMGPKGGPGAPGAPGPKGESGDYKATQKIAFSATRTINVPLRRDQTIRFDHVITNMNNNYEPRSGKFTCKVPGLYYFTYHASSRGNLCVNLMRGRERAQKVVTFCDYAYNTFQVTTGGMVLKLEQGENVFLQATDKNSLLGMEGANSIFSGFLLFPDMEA
Chain of human C1q (P02747 29-245 limits assumed, chain 3 of 3): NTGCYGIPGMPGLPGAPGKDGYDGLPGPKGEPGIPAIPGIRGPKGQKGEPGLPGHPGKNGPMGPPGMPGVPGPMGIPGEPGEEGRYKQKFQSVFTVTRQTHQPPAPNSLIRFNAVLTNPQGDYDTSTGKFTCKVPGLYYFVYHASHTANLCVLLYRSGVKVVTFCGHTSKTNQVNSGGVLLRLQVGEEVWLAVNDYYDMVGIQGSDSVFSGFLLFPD

[7] = molecular target: T2, huTGFβ RIIFc (recombinant extracellular …); test: SPR (Biacore), TGFβ RII-Fc extracellular domain immobilized at low density; Antibody A; KD
Description: as §3

T1 sequence (P37173 23-166): as the sequence (P37173 23-166) above

B1: LY3022859 (antibody, IgG1, V domains shown)
VH: QLQVQESGPGLVKPSETLSLTCTVSGGSISNSYFSWGWIRQPPGKGLEWIGSFYYGEKTYYNPSLKSRATISIDTSKSQFSLKLSSVTAADTAVYYCPRGPTMIRGVIDSWGQGTLVTVSS
VL: EIVLTQSPATLSLSPGERATLSCRASQSVRSYLAWYQQKPGQAPRLLIYDASNRATGIPARFSGSGSGTDFTLTISSLEPEDFAVYYCQQRSNWPPTFGQGTKVEIK
notes: the antibody is disclosed in WO 2010/053814; also called TGFβRII mAb LY3022859; anti-TGFβ RII antibody IgG1
IC50 (TGFβ RII AP [1]): 4.45 nM | IC50 (TGFβ RII AP [2]): 5.48 nM | IC50 (TGFβ RII AP [3]): 4.41 nM | EC50 [4]: 0.306 nM | Kd [5]: 0.0106 nM

B2: Antibody A (antibody, human IgG1, kappa)
heavy: QLQVQESGPGLVKPSETLSLTCTVSGGSISNSYFSWGWIRQPPGKGLEWIGSFYYGEKTYYNPSLKSRATISIDTSKSQFSLKLSSVTAADTAVYYCPRGPTMIRGVIDSWGQGTLVTVSSASTKGPSVFPLAPSSKSTSGGTAALGCLVKDYFPEPVTVSWNSGALTSGVHTFPAVLQSSGLYSLSSVVTVPSSSLGTQTYICNVNHKPSNTKVDKRVEPKSCDKTHTCPPCPAPEAEGAPSVFLFPPKPKDTLMISRTPEVTCVVVDVSHEDPEVKFNWYVDGVEVHNAKTKPREEQYNSTYRVVSVLTVLHQDWLNGKEYKCKVSNKALPSSIEKTISKAKGQPREPQVYTLPPSREEMTKNQVSLTCLVKGFYPSDIAVEWESNGQPENNYKTTPPVLDSDGSFFLYSKLTVDKSRWQQGNVFSCSVMHEALHNHYTQKSLSLSPGK
light: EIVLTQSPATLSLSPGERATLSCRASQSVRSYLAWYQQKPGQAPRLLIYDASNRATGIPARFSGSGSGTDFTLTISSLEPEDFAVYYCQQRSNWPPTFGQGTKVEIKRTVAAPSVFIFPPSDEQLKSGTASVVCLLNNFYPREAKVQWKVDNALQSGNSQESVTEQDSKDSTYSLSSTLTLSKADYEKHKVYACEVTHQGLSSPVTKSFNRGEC
notes: same variable regions as LY3022859; also called anti-TGFβ RII antibody IgG1 effector null
EC50 (FcγR3a (V)): > 2000 nM | EC50 (FcγR1): > 2000 nM | EC50 (FcγR2a(H)): > 2000 nM | IC50 (TGFβ RII AP [1]): 4.4 nM | IC50 (TGFβ RII AP [2]): 4.83 nM | IC50 (TGFβ RII AP [3]): 4.36 nM | EC50 [6]: 0.277 nM | CDC activity EC50 (nM), BxPC3 target cells, human complement (human C1q): > 200 nM | CDC activity EC50 (nM), HEK293 target cells, human complement (human C1q): > 200 nM | CDC activity EC50 (nM), MDA-MB-231 target cells, human complement (human C1q): > 200 nM | CDC activity EC50 (nM), TGFRβII-HEK target cells, human complement (human C1q): > 200 nM | Kd [7]: 0.0222 nM
